Reference: the supplement of paper PMC5998384

Experiments:
HeLa Kyoto [1] = assay: solubility in G1/S (NP-40 vs SDS abundance) (log2 ratio); higher = more soluble; conditions: cell cycle stage: G1/S
HeLa Kyoto [2] = assay: solubility change mitosis vs G1/S (difference of NP-40 vs SDS log2 ratios) (log2 ratio difference); higher = more soluble in mitosis
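For solubility change mitosis vs G1/S (difference of NP-40 vs SDS log2 ratios) in this document: synchronized HeLa Kyoto cells (double thymidine block for G1/S, nocodazole release for mitosis), protein amounts in NP-40 versus SDS lysates quantified by mass spectrometry, three biological replicates.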
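For solubility in G1/S (NP-40 vs SDS abundance) in this document: HeLa Kyoto cells arrested at G1/S by double thymidine block, proteins quantified by TMT10plex mass spectrometry in mild NP-40 versus SDS extracts, three biological replicates.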

| Substance | solubility in G1/S (log2) (HeLa Kyoto [1]) | solubility change mitosis (log2) (HeLa Kyoto [2]) |
| --- | --- | --- |
| MFFYLSKKISIPNNVKLQCVSWNKEQGFIACGGEDGLLKVLKLETQTDDAKLRGLAAPSNLSMNQTLEGHSGSVQVVTWNEQYQKLTTSDENGLIIVWMLYKGSWIEEMINNRNKSVVRSMSWNADGQKICIVYEDGAVIVGSVDGNRIWGKDLKGIQLSHVTWSADSKVLLFGMANGEIHIYDNQGNFMIKMKLSCLVNVTGAISIAGIHWYHGTEGYVEPDCPCLAVCFDNGRCQIMRHENDQNPVLIDTGMYVVGIQWNHMGSVLAVAGFQKAAMQDKDVNIVQFYTPFGEHLGTLKVPGKEISALSWEGGGLKIALAVDSFIYFANIRPNYKWGYCSNTVVYAYTRPDRPEYCVVFWDTKNNEKYVKYVKGLISITTCGDFCILATKADENHPQEENEMETFGATFVLVLCNSIGTPLDPKYIDIVPLFVAMTKTHVIAASKEAFYTWQYRVAKKLTALEINQITRSRKEGRERIYHVDDTPSGSMDGVLDYSKTIQGTRDPICAITASDKILIVGRESGTIQRYSLPNVGLIQKYSLNCRAYQLSLNCNSSRLAIIDISGVLTFFDLDARVTDSTGQQVVGELLKLERRDVWDMKWAKDNPDLFAMMEKTRMYVFRNLDPEEPIQTSGYICNFEDLEIKSVLLDEILKDPEHPNKDYLINFEIRSLRDSRALIEKVGIKDASQFIEDNPHPRLWRLLAEAALQKLDLYTAEQAFVRCKDYQGIKFVKRLGKLLSESMKQAEVVGYFGRFEEAERTYLEMDRRDLAIGLRLKLGDWFRVLQLLKTGSGDADDSLLEQANNAIGDYFADRQKWLNAVQYYVQGRNQERLAECYYMLEDYEGLENLAISLPENHKLLPEIAQMFVRVGMCEQAVTAFLKCSQPKAAVDTCVHLNQWNKAVELAKNHSMKEIGSLLARYASHLLEKNKTLDAIELYRKANYFFDAAKLMFKIADEEAKKGSKPLRVKKLYVLSALLIEQYHEQMKNAQRGKVKGKSSEATSALAGLLEEEVLSTTDRFTDNAWRGAEAYHFFILAQRQLYEGCVDTALKTALHLKDYEDIIPPVEIYSLLALCACASRAFGTCSKAFIKLKSLETLSSEQKQQYEDLALEIFTKHTSKDNRKPELDSLMEGGEGKLPTCVATGSPITEYQFWMCSVCKHGVLAQEISHYSFCPLCHSPVG [WDR35] | -0.261 | -0.105 |
| MDPPAVVAESVSSLTIADAFIAAGESSAPTPPRPALPRRFICSFPDCSANYSKAWKLDAHLCKHTGERPFVCDYEGCGKAFIRDYHLSRHILTHTGEKPFVCAANGCDQKFNTKSNLKKHFERKHENQQKQYICSFEDCKKTFKKHQQLKIHQCQHTNEPLFKCTQEGCGKHFASPSKLKRHAKAHEGYVCQKGCSFVAKTWTELLKHVRETHKEEILCEVCRKTFKRKDYLKQHMKTHAPERDVCRCPREGCGRTYTTVFNLQSHILSFHEESRPFVCEHAGCGKTFAMKQSLTRHAVVHDPDKKKMKLKVKKSREKRSLASHLSGYIPPKRKQGQGLSLCQNGESPNCVEDKMLSTVAVLTLG [GTF3A] | -0.869 | 0.0516 |
| MSKLPRELTRDLERSLPAVASLGSSLSHSQSLSSHLLPPPEKRRAISDVRRTFCLFVTFDLLFISLLWIIELNTNTGIRKNLEQEIIQYNFKTSFFDIFVLAFFRFSGLLLGYAVLRLRHWWVIAVTTLVSSAFLIVKVILSELLSKGAFGYLLPIVSFVLAWLETWFLDFKVLPQEAEEERWYLAAQVAVARGPLLFSGALSEGQFYSPPESFAGSDNESDEEVAGKKSFSAQEREYIRQGKEATAVVDQILAQEENWKFEKNNEYGDTVYTIEVPFHGKTFILKTFLPCPAELVYQEVILQPERMVLWNKTVTACQILQRVEDNTLISYDVSAGAAGGVVSPRDFVNVRRIERRRDRYLSSGIATSHSAKPPTHKYVRGENGPGGFIVLKSASNPRVCTFVWILNTDLKGRLPRYLIHQSLAATMFEFAFHLRQRISELGARA [STARD3] | -0.0414 | -0.178 |
| MTQQPQDDFDRSVEDAQAWMKAVQDQLQVNDNTQGPRAALEARLWETEKICQLEPEGRVRVDLVLRMAEALLACCPGDQKPGILARLKDIKAQWEETVTYMTHCHSRIEWVWLHWSEYLLARDEFYRWFQKMMVTLEPHIELQLGLKEKQWQLSHAQVLLHNVDNQAVLLDRLLEEAASLFNRIGDPSVDEDAQKRMKAEYDAVKAKAQKRVDLLEQVAREHEEYQAGVDEFQLWLKAVVEKVNGCLGRNCKLPITQRLSTLQDIAKDFPRGEESLETLEEQSAGVIRNTSPLGAEKITGELEEMRKVLEKLRALWEEEEERLRGLLRSRGAWEQQIKQLEAELSEFRMVLQRLAQEGLQPAAKAGTEDELVAHWRRYSATRAALASEEPRVDRLQAQLKELIVFPHNLKPLSDSVIATIQEYQSLKVKSARLRNAAAVELWQHFQRPLQDLQLWKALAQRLLEVTASLPDLPSLHTFLPQIEAALMESSRLKELLTMLQLKKDLLIGIFGQERATALLEQVAGSMRDRDLLHNSLLQRKSKLQSLLAQHKDFGAAFEPLQRKLLDLQVRVQAEKGLQRDLPGKQAQLSRLQGLQEEGLDLGAQMEAARPLVQENPNHQHKMDQLSSDFQALQRSLEDLVDRCRQSVQEHCTFSHQLLELRQWIVVTTQKLEAHRGEAGPGDAESQEAEFERLVAEFPEKEAQLSLVEAQGWLVMEKSSPEGAAVVQEELRELAESWRALRLLEESLLSLIRNWHLQRMEVDSGKKMVFTNNIPKSGFLINPMDPIPRHRRRANLLQEEEGSHEDFSQLLRNFGQWLQVENSKLVRIIAMRTSTAEDLRTRKSKLQELEARVPEGQHLFENLLRLGPARGTSDELEDLRYQWMLYKSKLKDSGHLLTQSSPGEPTGFQKTRRWRGLGSLFRRACCVALPLQLLLLLFLLLLFLLPIREEDRSCTLANNFARSFTLMLRYNGPPPT [SYNE3] | -0.89 | 0.336 |
| MNALLEQKEQQERLREAAALGDIREVQKLVESGVDVNSQNEVNGWTCLHWACKRNHGQVVSYLLKSGADKEILTTKGEMPVQLTSRREIRKIMGVEEEDDDDDDDDNLPQLKKESELPFVPNYLANPAFPFIYTPTAEDSAQMQNGGPSTPPASPPADGSPPLLPPGEPPLLGTFPRDHTSLALVQNGDVSAPSAILRTPESTKPGPVCQPPVSQSRSLFSSVPSKPPMSLEPQNGTYAGPAPAFQPFFFTGAFPFNMQELVLKVRIQNPSLRENDFIEIELDRQELTYQELLRVCCCELGVNPDQVEKIRKLPNTLLRKDKDVARLQDFQELELVLMISENNFLFRNAASTLTERPCYNRRASKLTY [ANKRD40] | -0.0058 | -0.00743 |
| MAQASLLACEGLAGVSLVPTAASKKMMLSQIASKQAENGERAGSPDVLRCSSQGHRKDSDKSRSRKDDDSLSEASHSKKTVKKVVVVEQNGSFQVKIPKNFVCEHCFGAFRSSYHLKRHILIHTGEKPFECDICDMRFIQKYHLERHKRVHSGEKPYQCERCHQCFSRTDRLLRHKRMCQGCQSKTSDGQFSL [ZNF740] | -0.111 | -0.0892 |
| MWRGRAGALLRVWGFWPTGVPRRRPLSCDAASQAGSNYPRCWNCGGPWGPGREDRFFCPQCRALQAPDPTRDYFSLMDCNRSFRVDTAKLQHRYQQLQRLVHPDFFSQRSQTEKDFSEKHSTLVNDAYKTLLAPLSRGLYLLKLHGIEIPERTDYEMDRQFLIEIMEINEKLAEAESEAAMKEIESIVKAKQKEFTDNVSSAFEQDDFEEAKEILTKMRYFSNIEEKIKLKKIPL [HSCB] | 0.296 | 0.307 |
| MAQGLIEVERKFLPGPGTEERLQELGGTLEYRVTFRDTYYDTPELSLMQADHWLRRREDSGWELKCPGAAGVLGPHTEYKELTAEPTIVAQLCKVLRADGLGAGDVAAVLGPLGLQEVASFVTKRSAWKLVLLGADEEEPQLRVDLDTADFGYAVGEVEALVHEEAEVPTALEKIHRLSSMLGVPAQETAPAKLIVYLQRFRPQDYQRLLEVNSSRERPQETEDPDHCLG [THTPA] | 0.0904 | 0.0566 |
| MEDLEEDVRFIVDETLDFGGLSPSDSREEEDITVLVTPEKPLRRGLSHRSDPNAVAPAPQGVRLSLGPLSPEKLEEILDEANRLAAQLEQCALQDRESAGEGLGPRRVKPSPRRETFVLKDSPVRDLLPTVNSLTRSTPSPSSLTPRLRSNDRKGSVRALRATSGKRPSNMKRESPTCNLFPASKSPASSPLTRSTPPVRGRAGPSGRAAASEETRAAKLRVSGSGEFVGLTLKFLHPSPPGPPTPIRSVLAPQPSTSNSQRLPRPQGAAAKSSSQLPIPSAIPRPASRMPLTSRSVPPGRGALPPDSLSTRKGLPRPSTAGHRVRESGHKVPVSQRLNLPVMGATRSNLQPPRKVAVPGPTR [PSRC1] | -0.152 | 0.803 |
| MAEKFDHLEEHLEKFVENIRQLGIIVSDFQPSSQAGLNQKLNFIVTGLQDIDKCRQQLHDITVPLEVFEYIDQGRNPQLYTKECLERALAKNEQVKGKIDTMKKFKSLLIQELSKVFPEDMAKYRSIRGEDHPPS [MED10] | -0.142 | 0.446 |
| WDFY3 | -0.364 | 0.0228 |
| MAMASPAIGQRPYPLLLDPEPPRYLQSLSGPELPPPPPDRSSRLCVPAPLSTAPGAREGRSARRAARGNLEPPPRASRPARPLRPGLQQRLRRRPGAPRPRDVRSIFEQPQDPRVPAERGEGHCFAELVLPGGPGWCDLCGREVLRQALRCTNCKFTCHPECRSLIQLDCSQQEGLSRDRPSPESTLTVTFSQNVCKPVEETQRPPTLQEIKQKIDSYNTREKNCLGMKLSEDGTYTGFIKVHLKLRRPVTVPAGIRPQSIYDAIKEVNLAATTDKRTSFYLPLDAIKQLHISSTTTVSEVIQGLLKKFMVVDNPQKFALFKRIHKDGQVLFQKLSIADRPLYLRLLAGPDTEVLSFVLKENETGEVEWDAFSIPELQNFLTILEKEEQDKIQQVQKKYDKFRQKLEEALRESQGKPG [RASSF5] | 0.328 | -0.108 |
| MASSGAGDPLDSKRGEAPFAQRIDPTREKLTPEQLHSMRQAELAQWQKVLPRRRTRNIVTGLGIGALVLAIYGYTFYSISQERFLDELEDEAKAARARALARASGS [COA3] | -0.65 | 0.902 |
| MSRKISKESKKVNISSSLESEDISLETTVPTDDISSSEEREGKVRITRQLIERKELLHNIQLLKIELSQKTMMIDNLKVDYLTKIEELEEKLNDALHQKQLLTLRLDNQLAFQQKDASKYQELMKQEMETILLRQKQLEETNLQLREKAGDVRRNLRDFELTEEQYIKLKAFPEDQLSIPEYVSVRFYELVNPLRKEICELQVKKNILAEELSTNKNQLKQLTETYEEDRKNYSEVQIRCQRLALELADTKQLIQQGDYRQENYDKVKSERDALEQEVIELRRKHEILEASHMIQTKERSELSKEVVTLEQTVTLLQKDKEYLNRQNMELSVRCAHEEDRLERLQAQLEESKKAREEMYEKYVASRDHYKTEYENKLHDELEQIRLKTNQEIDQLRNASREMYERENRNLREARDNAVAEKERAVMAEKDALEKHDQLLDRYRELQLSTESKVTEFLHQSKLKSFESERVQLLQEETARNLTQCQLECEKYQKKLEVLTKEFYSLQASSEKRITELQAQNSEHQARLDIYEKLEKELDEIIMQTAEIENEDEAERVLFSYGYGANVPTTAKRRLKQSVHLARRVLQLEKQNSLILKDLEHRKDQVTQLSQELDRANSLLNQTQQPYRYLIESVRQRDSKIDSLTESIAQLEKDVSNLNKEKSALLQTKNQMALDLEQLLNHREELAAMKQILVKMHSKHSENSLLLTKTEPKHVTENQKSKTLNVPKEHEDNIFTPKPTLFTKKEAPEWSKKQKMKT [PIBF1] | 0.069 | 0.297 |
